Experimental data published in article PMC10959496 (European journal of medicinal chemistry, 2023).

What was measured:
[1] = mouse, ip
EphA4 [2] = molecular target: T1, EphA4 (Homo sapiens, UniProt P54764); assay: ELISA measuring EphA4 activation; format: cell-based; conditions: HEK-EphA4 cells, ratio of IC50 values
EphA4 [3] = molecular target: T1, EphA4; conditions: cited from earlier work

T1 sequence (P54764 20-986, species assumed): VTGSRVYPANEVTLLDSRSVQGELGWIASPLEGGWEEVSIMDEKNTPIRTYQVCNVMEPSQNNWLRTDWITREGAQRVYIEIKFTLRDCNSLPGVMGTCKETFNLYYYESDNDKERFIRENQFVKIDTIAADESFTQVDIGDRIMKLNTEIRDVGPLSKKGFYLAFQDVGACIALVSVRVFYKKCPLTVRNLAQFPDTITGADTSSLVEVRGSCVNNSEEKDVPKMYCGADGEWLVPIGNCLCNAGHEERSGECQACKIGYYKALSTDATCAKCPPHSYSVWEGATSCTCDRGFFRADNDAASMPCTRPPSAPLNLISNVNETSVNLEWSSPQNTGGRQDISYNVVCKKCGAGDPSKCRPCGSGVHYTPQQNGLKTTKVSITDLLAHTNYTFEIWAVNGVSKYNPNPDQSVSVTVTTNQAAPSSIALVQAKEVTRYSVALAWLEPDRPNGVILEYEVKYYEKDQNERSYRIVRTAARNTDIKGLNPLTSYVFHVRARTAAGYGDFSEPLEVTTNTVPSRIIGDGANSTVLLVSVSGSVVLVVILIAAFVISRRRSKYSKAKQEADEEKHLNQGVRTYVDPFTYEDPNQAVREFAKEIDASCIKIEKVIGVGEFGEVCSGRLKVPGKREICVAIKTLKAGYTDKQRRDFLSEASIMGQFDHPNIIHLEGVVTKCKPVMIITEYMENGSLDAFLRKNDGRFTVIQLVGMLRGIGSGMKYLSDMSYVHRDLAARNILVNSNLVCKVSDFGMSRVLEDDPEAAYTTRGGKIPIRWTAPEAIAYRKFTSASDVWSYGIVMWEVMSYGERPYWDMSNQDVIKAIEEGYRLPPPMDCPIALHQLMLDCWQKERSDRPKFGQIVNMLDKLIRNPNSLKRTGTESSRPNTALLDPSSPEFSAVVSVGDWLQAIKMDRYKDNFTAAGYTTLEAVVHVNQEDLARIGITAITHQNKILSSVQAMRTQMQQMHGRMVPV

| Substance | Blood concentration at 20 hours after injection ([1]; in vivo, 0.8 mg per mouse, 20 h) | Blood concentration at 48 hours after injection ([1]; in vivo, 0.8 mg per mouse, 48 h) [nM] | In vivo half-life after intraperitoneal injection [1] [h] | Potency in cells lower than that of APY-d3 (EphA4 [2]) | More potent than APY (EphA4 [3]) [fold] |
| --- | --- | --- | --- | --- | --- |
| APY-d3-PEG4: APY-d3 conjugated to 30 kDa metoxy-PEG-azide through 3 amino-hexanoic acid groups and propargyl-glycine by click chemistry | ~ 3 μM | 400 | > 10 | ~ 4 fold |  |
| APYCVYRβASWSC-NH2 (disulfide) [APY-d2] |  |  |  |  | 50 |
